Test [1] concerns the target T1, 1-27 CD3-Fc (N-terminal amino acids 1-27 of the mature human CD3 epsilon chain fused to the hinge and Fc … (human)).
T1 construct: The construct was made with a 19 aa immunoglobulin leader; also called 27 aa huCD3E; human CD3 epsilon (aa 1-27)-Fc fusion protein
The test can be described thus: SPR (Biacore), 1-27 CD3-Fc immobilised.

In test [2] the target is T2, human CD3 (native CD3 complex on human T cells) (human, UniProt P07766 23-207).
T2 construct: whole, on cells; also called human CD3+ T cell line HPB-ALL; human CD3 positive PBMC
T2 sequence (P07766 23-207, one chain of several): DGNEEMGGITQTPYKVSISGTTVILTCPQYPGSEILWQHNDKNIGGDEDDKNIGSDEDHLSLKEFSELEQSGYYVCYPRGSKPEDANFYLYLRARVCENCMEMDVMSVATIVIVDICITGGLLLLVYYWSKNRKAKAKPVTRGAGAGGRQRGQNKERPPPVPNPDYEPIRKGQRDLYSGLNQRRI
The test can be described thus: FACS, HPB-ALL. A general note: A flow cytometer gives signals particle by particle.

A word on the Kd: it is the constant that tells how readily two partners part at equilibrium. A lower Kd goes with a tighter complex.

B1: EGFR-21-63 LH × A2J HLP (bispecific antibody)
chain: DIVLTQSPASLPVSLGQRATISCRASQSVSSSTYSYIHWYQQKPGQPPKLLITYASNLESGVPARFSGSGSGTDFTLDIHPVEEDDSSTYYCQHSWEIPFTFGSGTKLEIKGGGGSGGGGSGGGGSQVQLQQSGPDLVKPGASVKMSCKASGHTFTDCVIIWVKQRAGQGLEWIGQIYPGTGRSYYNEIFKGKATLTADKSSNTVHIQLSSLTSEDSAVYFCALSTLIHGTWFSYWGQGTLVTVSSGGGGSEVQLLESGGGLVQPGGSLKLSCAASGFTFNVYAMNWVRQAPGKGLEWVARIRSKYNNYATYYADSVKKRFTISRDDSKNTAYLQMNNLKTEDTAVYYCVRHGNFGNSYLSWWAYWGQGTLVTVSSGGGGSGGGGSGGGGSELVVTQEPSLTVSPGGTVTLTCRSSTGAVTSGYYPNWVQQKPGQAPRGLIGATDMRPSGTPARFSGSLLGGKAALTLSGVQPEDEAEYYCALWYSNRWVFGGGTKLTVLHHHHHH
notes: also called EGFR LH × A2J HLP
For B1, the dissociation constant (Kd) in test [1] was determined as 0.249 µM.

B2: EGFR-21-63 LH × E2M HLP (bispecific antibody)
chain: DIVLTQSPASLPVSLGQRATISCRASQSVSSSTYSYIHWYQQKPGQPPKLLITYASNLESGVPARFSGSGSGTDFTLDIHPVEEDDSSTYYCQHSWEIPFTFGSGTKLEIKGGGGSGGGGSGGGGSQVQLQQSGPDLVKPGASVKMSCKASGHTFTDCVIIWVKQRAGQGLEWIGQIYPGTGRSYYNEIFKGKATLTADKSSNTVHIQLSSLTSEDSAVYFCALSTLIHGTWFSYWGQGTLVTVSSGGGGSEVQLLESGGGLVQPGGSLKLSCAASGFTFNGYAMNWVRQAPGKGLEWVARIRSKYNNYATYYADSVKERFTISRDDSKNTAYLQMNNLKTEDTAVYYCVRHRNFGNSYLSWFAYWGQGTLVTVSSGGGGSGGGGSGGGGSELVVTQEPSLTVSPGGTVTLTCRSSTGAVTSGYYPNWVQQKPGQAPRGLIGATDMRPSGTPARFSGSLLGGKAALTLSGVQPEDEAEYYCALWYSNRWVFGGGTKLTVLHHHHHH
notes: also called EGFR LH × E2M HLP
Consider B2, for which the Kd in test [1] amounted to 2.46 µM.

B3: MCSP-G4 HLP × E2M HLP (bispecific antibody)
chain: QVQLVQSGAEVKRPGASMKVSCKASGYTFTNYYIHWVRQAPGQGLEWMGWINPNSGATNYAQKFQGRVTMTRDTSTSTVYMELSSLRSEDTAVYYCAKSWVSWFASWGQGTLVTVSSGGGGSGGGGSGGGGSELVMTQSPDSLAVSLGERATINCKSSQSVLNSSNNRNYLAWYQQKPGQPPKLLIYWASTRESGVPDRFSGSGSGTDFTLTISGLQAEDVAVYYCQQHYSTPFTFGPGTKVDIKSGGGGSEVQLLESGGGLVQPGGSLKLSCAASGFTFNGYAMNWVRQAPGKGLEWVARIRSKYNNYATYYADSVKERFTISRDDSKNTAYLQMNNLKTEDTAVYYCVRHRNFGNSYLSWFAYWGQGTLVTVSSGGGGSGGGGSGGGGSELVVTQEPSLTVSPGGTVTLTCRSSTGAVTSGYYPNWVQQKPGQAPRGLIGATDMRPSGTPARFSGSLLGGKAALTLSGVQPEDEAEYYCALWYSNRWVFGGGTKLTVLHHHHHH
Turning to B3, the binding result in test [2] was “binds”.

The values are drawn from patent US20230357444A1 (published 2023).
